Results reported in the supplement of paper PMC9112550, “Optimization of the antimicrobial peptide Bac7 by deep mutational scanning” (BMC Biology, 2022).
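Note: peptides expressed intracellularly from a pBAD plasmid library in pooled LB shake-flask culture, induced with 0.3% L-arabinose, DNA abundance read by NGS, three biological replicates, DESeq2 with apeglm shrinkage.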

The sequences below were run on Escherichia coli TOP10 (assay: shrunken log2 fold change of peptide-encoding DNA abundance (4.5 h post-induction vs induction); higher = less antimicrobial activity (less host growth inhibition)). Settings: time post-induction: 4.5 h; library: site-saturation at positions 5, 18, 19, 20.
RRIRYRPPRLPRPRPRPQFYPRP was tested, and the “shrunken log2 fold change” value was -1.86. For RRIRIRPPRLPRPRPRPWEVPRP, the “shrunken log2 fold change” value was -0.00884. In the case of RRIRDRPPRLPRPRPRPIGKPRP, the “shrunken log2 fold change” value is reported as -0.153. RRIRGRPPRLPRPRPRPELEPRP was tested, and the “shrunken log2 fold change” value was 2.14. For RRIRWRPPRLPRPRPRPPESPRP, the “shrunken log2 fold change” value was 0.225. For RRIRWRPPRLPRPRPRPPYNPRP, the “shrunken log2 fold change” value was -0.221. In the case of RRIRARPPRLPRPRPRPFAYPRP, the “shrunken log2 fold change” value is reported as -0.289. With RRIRDRPPRLPRPRPRPYEGPRP the “shrunken log2 fold change” value was 0.00106. With RRIRVRPPRLPRPRPRPPFEPRP the “shrunken log2 fold change” value was 0.26. RRIRDRPPRLPRPRPRPFVFPRP was tested, and the “shrunken log2 fold change” value was 0.175. With RRIRIRPPRLPRPRPRPAMNPRP the “shrunken log2 fold change” value was -0.495. RRIRFRPPRLPRPRPRPLRCPRP was tested, and the “shrunken log2 fold change” value was 0.0723. In the case of RRIRPRPPRLPRPRPRPYVYPRP, the “shrunken log2 fold change” value is reported as -0.636. In the case of RRIRFRPPRLPRPRPRPAYCPRP, the “shrunken log2 fold change” value is reported as -0.219. RRIRRRPPRLPRPRPRPHRKPRP was tested, and the “shrunken log2 fold change” value was -0.247. In the case of RRIRFRPPRLPRPRPRPDAGPRP, the “shrunken log2 fold change” value is reported as 0.121. With RRIRLRPPRLPRPRPRPSNRPRP the “shrunken log2 fold change” value was -0.599. RRIRFRPPRLPRPRPRPKVPPRP was tested, and the “shrunken log2 fold change” value was -0.109. With RRIRYRPPRLPRPRPRPQRSPRP the “shrunken log2 fold change” value was -0.129. With RRIRPRPPRLPRPRPRPMGSPRP the “shrunken log2 fold change” value was -0.0938. For RRIRWRPPRLPRPRPRPNPFPRP, the “shrunken log2 fold change” value was 0.208. RRIRCRPPRLPRPRPRPKWVPRP was tested, and the “shrunken log2 fold change” value was 0.0707. In the case of RRIRFRPPRLPRPRPRPTPQPRP, the “shrunken log2 fold change” value is reported as 0.366. For RRIRLRPPRLPRPRPRPQQGPRP, the “shrunken log2 fold change” value was -0.0774. RRIRQRPPRLPRPRPRPIDHPRP was tested, and the “shrunken log2 fold change” value was -0.0445. With RRIRFRPPRLPRPRPRPGYEPRP the “shrunken log2 fold change” value was -0.16. For RRIRKRPPRLPRPRPRPIGRPRP, the “shrunken log2 fold change” value was 0.015. In the case of RRIRRRPPRLPRPRPRPWMHPRP, the “shrunken log2 fold change” value is reported as 0.103. RRIRCRPPRLPRPRPRPWMYPRP was tested, and the “shrunken log2 fold change” value was -0.0169. In the case of RRIRQRPPRLPRPRPRPFCEPRP, the “shrunken log2 fold change” value is reported as -0.0314. In the case of RRIRGRPPRLPRPRPRPGCVPRP, the “shrunken log2 fold change” value is reported as 1.08. For RRIRHRPPRLPRPRPRPAAHPRP, the “shrunken log2 fold change” value was 0.274. RRIRVRPPRLPRPRPRPSLCPRP was tested, and the “shrunken log2 fold change” value was -0.233. RRIRDRPPRLPRPRPRPRNKPRP was tested, and the “shrunken log2 fold change” value was -0.014. With RRIRIRPPRLPRPRPRPNMQPRP the “shrunken log2 fold change” value was -0.29. With RRIRDRPPRLPRPRPRPIISPRP the “shrunken log2 fold change” value was 0.0102. With RRIRGRPPRLPRPRPRPSYLPRP the “shrunken log2 fold change” value was -0.479. In the case of RRIRHRPPRLPRPRPRPDNHPRP, the “shrunken log2 fold change” value is reported as -0.323. With RRIRKRPPRLPRPRPRPQSCPRP the “shrunken log2 fold change” value was -0.0373. RRIRGRPPRLPRPRPRPAYSPRP was tested, and the “shrunken log2 fold change” value was -0.0128. RRIRRRPPRLPRPRPRPFDNPRP was tested, and the “shrunken log2 fold change” value was -0.241. RRIRWRPPRLPRPRPRPSCNPRP was tested, and the “shrunken log2 fold change” value was -0.0978. In the case of RRIRSRPPRLPRPRPRPTDYPRP, the “shrunken log2 fold change” value is reported as -0.66. For RRIRQRPPRLPRPRPRPHSTPRP, the “shrunken log2 fold change” value was -0.149. For RRIRERPPRLPRPRPRPKQHPRP, the “shrunken log2 fold change” value was 0.241. In the case of RRIRERPPRLPRPRPRPWYFPRP, the “shrunken log2 fold change” value is reported as -0.171. With RRIRWRPPRLPRPRPRPECRPRP the “shrunken log2 fold change” value was 0.88. RRIRMRPPRLPRPRPRPYWRPRP was tested, and the “shrunken log2 fold change” value was -0.159. For RRIRMRPPRLPRPRPRPKCFPRP, the “shrunken log2 fold change” value was 0.0196. RRIRHRPPRLPRPRPRPQEWPRP was tested, and the “shrunken log2 fold change” value was -0.119. For RRIRKRPPRLPRPRPRPNSRPRP, the “shrunken log2 fold change” value was 0.149. In the case of RRIRGRPPRLPRPRPRPNINPRP, the “shrunken log2 fold change” value is reported as 0.337. For RRIRHRPPRLPRPRPRPEGMPRP, the “shrunken log2 fold change” value was -0.0777. For RRIRKRPPRLPRPRPRPAYFPRP, the “shrunken log2 fold change” value was -0.0128. With RRIRSRPPRLPRPRPRPECTPRP the “shrunken log2 fold change” value was 0.169. For RRIRIRPPRLPRPRPRPMSNPRP, the “shrunken log2 fold change” value was 0.115. With RRIRYRPPRLPRPRPRPFRCPRP the “shrunken log2 fold change” value was 0.0856. With RRIRCRPPRLPRPRPRPCPYPRP the “shrunken log2 fold change” value was -0.215. RRIRERPPRLPRPRPRPCKWPRP was tested, and the “shrunken log2 fold change” value was 0.0276. RRIRDRPPRLPRPRPRPDCDPRP was tested, and the “shrunken log2 fold change” value was 0.122. For RRIRERPPRLPRPRPRPYGLPRP, the “shrunken log2 fold change” value was -0.0303. In the case of RRIRFRPPRLPRPRPRPVTEPRP, the “shrunken log2 fold change” value is reported as -0.0132. In the case of RRIRPRPPRLPRPRPRPWHHPRP, the “shrunken log2 fold change” value is reported as -0.209. With RRIRARPPRLPRPRPRPFVLPRP the “shrunken log2 fold change” value was -0.181. For RRIRLRPPRLPRPRPRPQIHPRP, the “shrunken log2 fold change” value was -0.154. In the case of RRIRFRPPRLPRPRPRPGPVPRP, the “shrunken log2 fold change” value is reported as 0.266. RRIRRRPPRLPRPRPRPITTPRP was tested, and the “shrunken log2 fold change” value was 0.032. In the case of RRIRCRPPRLPRPRPRPYKCPRP, the “shrunken log2 fold change” value is reported as -0.273. RRIRHRPPRLPRPRPRPIAIPRP was tested, and the “shrunken log2 fold change” value was 0.0123. With RRIRNRPPRLPRPRPRPLQIPRP the “shrunken log2 fold change” value was -0.143. RRIRERPPRLPRPRPRPETKPRP was tested, and the “shrunken log2 fold change” value was -0.231. With RRIRKRPPRLPRPRPRPMMMPRP the “shrunken log2 fold change” value was 0.619. In the case of RRIRRRPPRLPRPRPRPTHFPRP, the “shrunken log2 fold change” value is reported as 1.01. For RRIRTRPPRLPRPRPRPPDVPRP, the “shrunken log2 fold change” value was 0.176. RRIRTRPPRLPRPRPRPVCAPRP was tested, and the “shrunken log2 fold change” value was 0.266.
